In paper PMC12328718:
pKd: −log10 of the molar value. Each block holds one substance with its values, some of them ahead of it.

Assays:
SHMT2 WT = target: T1, SHMT2 WT (UniProt P34897); experiment: EMSA; settings: EMSA: 20 mM HEPES pH 7.4, 150 mM NaCl, 20 ug/ml BSA, 0.1 ug tRNA, RNase inhibitor, 8% glycerol, 25 C, 30 min; 4% native PAGE in 0.5x TBE
T1 sequence: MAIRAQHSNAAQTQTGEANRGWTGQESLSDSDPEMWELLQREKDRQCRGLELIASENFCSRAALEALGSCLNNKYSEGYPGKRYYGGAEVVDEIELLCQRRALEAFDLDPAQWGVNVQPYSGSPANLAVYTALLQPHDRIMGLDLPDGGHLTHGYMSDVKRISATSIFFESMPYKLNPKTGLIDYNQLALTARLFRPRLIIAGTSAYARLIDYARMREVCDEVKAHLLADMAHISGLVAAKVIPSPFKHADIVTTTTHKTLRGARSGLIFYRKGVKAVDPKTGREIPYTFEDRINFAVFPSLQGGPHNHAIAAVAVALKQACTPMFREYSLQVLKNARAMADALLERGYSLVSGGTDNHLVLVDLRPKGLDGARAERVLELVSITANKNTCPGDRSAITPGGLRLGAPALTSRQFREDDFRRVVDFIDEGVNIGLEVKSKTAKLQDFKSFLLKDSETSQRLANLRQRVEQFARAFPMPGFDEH

[1] = target: Serine hydroxymethyltransferase 2 (SHMT2) wild type; experiment: SEC; Superdex 200 column (16/600), last step of the purification; 20 mM Hepes pH 7.2, 250 mM NaCl, 10% glycerol
SHMT2 K281S-R284S = experiment: as above

Substance: GGGAUAAAGAAAAAAGCGGUGAGUGGGCGAACUACAAUUCCCAAAAGGCCACAAAGGGGCCACCACUACGCAUGCGUAGAUCCCUCCCGUUAGCUUUGGCGCCUCAGCGAGCUCUUCUCGCGCAUGCGUUCUCCGAACGGUCUUCUUCCGACAGCUUGCUGCCCUAGACCAGAGUUGGUGGCUGGACCUCCUGCGACUUCCGAGUUGCG [UTR2 RNA]
pKd (SHMT2 WT): 6.25

stoichiometry N [1]: 4
Substance: Serine hydroxymethyltransferase 2 (SHMT2) wild type (enzyme)

stoichiometry N (SHMT2 K281S-R284S): 4
Substance: SHMT2 K281S-R284S (enzyme)
